Source: PMC10379010, “Short Peptides of Innate Immunity Protein Tag7 (PGLYRP1) Selectively Induce Inhibition or Activation of Tumor Cell Death via TNF Receptor” (International Journal of Molecular Sciences, 2023)

B1: peptide 17.1A (peptide)
peptide: HRDVQRT
notes: Not biotinylated; used in the MST and the cytotoxicity tests; source: synthetic peptide (Fmoc, HPLC purified)
B2: Tag7 protein (PGLYRP1) (natural protein, UniProt O75594 22-196, looked up)
chain: QETEDPACCSPIVPRNEWKALASECAQHLSLPLRYVVVSHTAGSSCNTPASCQQQARNVQHYHMKTLGWCDVGYNFLIGEDGLVYEGRGWNFTGAHSGHLWNPMSIGISFMGNYMDRVPTPQAIRAAQGLLACGVAQGALRSNYVLKGHRDVQRTLSPGNQLYHLIQNWPHYRSP
notes: Tag7 (PGLYRP1), innate immunity protein; also called full-sized Tag7 protein; source: recombinant, obtained as described in [10]

Target: T1, soluble TNFR1 receptor domain (sTNFR1) (UniProt P19438 30-211, fluorescently labeled with Alexa Fluor 633 or Alexa Fluor 488 in the MST only)
T1 construct: TNF receptor TNFR1, soluble extracellular domain (sTNFR1); also called soluble TNFR1 site; source: recombinant, obtained as described in [10], purified
T1 sequence (looked up): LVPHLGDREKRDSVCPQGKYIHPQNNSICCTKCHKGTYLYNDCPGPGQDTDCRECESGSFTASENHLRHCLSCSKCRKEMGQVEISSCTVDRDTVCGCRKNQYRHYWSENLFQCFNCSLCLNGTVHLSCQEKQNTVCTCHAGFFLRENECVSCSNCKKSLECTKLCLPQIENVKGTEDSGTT
Experiment: MST; sTNFR1 or Hsp70 labeled with Alexa Fluor 633 or 488 (200 nM), 20 min in the dark at room temperature with 16 concentrations of each compound; Monolith NT 115, IR laser power 10%; apparent Kd; triplicate
Conditions: both partners purified

Binder	Kd [nM]
B1	5.44
B2	43.2
